Earlier results, collected in article PMC3930637.

Target: HIV-1 capsid (CA) CA (Human immunodeficiency virus 1) (UniProt O93182)
Sequence (O93182 133-363): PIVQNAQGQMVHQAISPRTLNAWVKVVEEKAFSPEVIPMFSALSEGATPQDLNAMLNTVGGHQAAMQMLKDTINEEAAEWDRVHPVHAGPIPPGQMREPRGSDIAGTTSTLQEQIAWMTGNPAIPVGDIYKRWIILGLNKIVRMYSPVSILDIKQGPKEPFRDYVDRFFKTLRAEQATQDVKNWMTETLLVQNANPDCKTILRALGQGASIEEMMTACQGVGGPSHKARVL

Nup358 cyclophilin homology domain, sequence (P49792 3067-3223): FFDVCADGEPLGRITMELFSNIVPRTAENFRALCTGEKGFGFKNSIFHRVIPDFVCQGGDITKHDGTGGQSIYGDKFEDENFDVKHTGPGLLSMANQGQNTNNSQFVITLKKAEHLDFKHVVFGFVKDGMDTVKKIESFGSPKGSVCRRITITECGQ

For “Nup358 cyclophilin homology domain (from UniProt P49792)”, which Kd is on record?
The Kd was 94 µM.
